Among the data in the NTF2 design screens of Basanta et al. (2020) are protease stability score values, retold here.

A short description of this series: protease stability score; higher = more stable; yeast display proteolysis, trypsin and chymotrypsin.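 Further: log10 excess protease needed over predicted unfolded state with 0 meaning unfolded.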
For “DHERILQELLDRAVKMLNTGNEEHARKLAPPHARMVVGDKTIHGMENIAHEWQKVQDRVDHVEARVHSMSVDGDKFVVIVEVTLDINGRKQTQVVTFIAVKNNGQVYVKQINIS”, the protease stability score is -0.162.
In turn, “DEELLERIKRIMHSGNFTELANQMDKDAKIIIGDKVLHGREQVEEWYDHLEREVDHVEVHTMTIHNGHLTVHMRMTINGKTFKVIMVIEVHNGRVKRVEVRVTDPNVQKWLKSILQ” returned a protease stability score of 1.26.
Then “DRTKTAKKVWDDFRSIMENNDPKEAEKLFDENAKADLGSKQVHGREQMVEMLRELAERVDHVEIRMKTVTDDNGQLNIEAEVRAEINGKQHTWRNQLNVVQQGDKRRIVSAKYG”, with -0.42.
The figure for “DEDASKELQRLARENDFKRIAELADENASAQIGDNVWHGREKILTNLKRMQDQVDHQRIHSIRTHGNKLRVTVRMVVNGRDFTFRFVIEVENGRVVSIDIKATSEKDKKKMNEVIG” is -0.158; for “KEEDIVKVAKKLAKIVEEGNPDELKKLLSPDLEVKYGDKERHGADELVKVLKKLLRKGVRIQVKELQVEGNTATTVLEYQHGDKKHDVEIKAKLTGGRLKKLEVRFSPKAQEIVTQG” it is 2.02; for “DEHAKKLAERILEAISNNNEEDIQKNIDPNAKIQVGDRQVHGREDLQKQYQDFRHHARIQNRLRSVRADGDHVTLEIEVVFKVNGNPVNNTVNMSMVIENGRVKMREVQVPEEVQDTIDQ” it is 0.075.
Then “DETEKAKRFFDEWLKALHRGDPDEVKKLADPNVRFEVGDKEIHGRSNMAKHVTDLRKRADSFSASIDSIDIKGEKVVIDAKLTYNHNGRKTHNKVEFDAKVHNGKIKLKEIIVR”, with -0.257; and “DDDEIRRLAKRVVKALHDGDPDEMMRLADENAKIDVGDHRIRGREQLRDFVKQLTEDVDHIRIHDYRVTPNHARVVVVVDHNGQKSTFVVEAHMDNGTIKSMRFHER”, with 0.462.
“DEEDLKRLAETFADALQRNDPSQLNKMIDPNAKVQYGEKTFHGREKLHEWAHEMKKQADHFEIRSITVEGESVVIDLRMIVNGHERRLNLTMHLKNGRIQHLRADSR” showed a protease stability score of 0.943.
The figure for “DEDSHKKLLEEMKDILNHGNFKNMLELADKNVRMQVGDKQYTGHSEFEDFLEHQRRQIDHLQVTDFKVSGENLVLTATANVNGKHVTIRFVVFFENGKMVRMEVDPSFQKQLES” is 0.87; for “DEEAQKQFEEFLDVLETGDPKRLQDNMDEDARVVIGDKTITGREEAAKEWHKIRQEISVEIKHVHMEAQGDKLNATLDVVWNVNGRPHRFKFVIIMDFHNGRIKQIEIRMDERHLKKLRT” it is 0.499.
In the case of “DEEKLMRNMIKKVSKLLKEGNWDEIANNADKNAKYDVGDTEVHGKEHAQEMHDRFRQNVDHAELSVTRVDVKGDKVQVHVDHSFTNNGRKHKFHLIFWASNVNGRMVIKSVQQK”, the protease stability score came to 0.565.
Then “DDETAEKLAREFIEALKEGNEEQVRRLVDENVRVEVGDTTFHGREEAAKFAKEFKQHADHVEIRDVSVHGDKVELNLVLNVNGRERDVVVIVRVENGKIKEFQYREN”, with 1.22.
Regarding “DEDKHAQDHMDQLTRLRKHGNFEKLANMADEDVEVHYGDKQVHGREQVVKTIKSEADDVDHFDVKVQEYHVQGDHIHVVNEFTLERNGQYRTDEQQFTVQITNGSIRIKNMTKK”, the protease stability score is -0.475.
Then “DHKELKKYLEQVEKNDFDKLKKNVDEDARVNYGNKTWHGREQVQKYWDDLKKRIDHFDVTHMTVKGDKLHYIVRMNVNGQNFEHKVVIEIQNGKIKQVDARYRDEKQKEKLEKVAD”, with 0.868; and “DEHAKRVVEKAWKALDTGDPKTMEDMLDPNARQRYGDTSVHGRENIIHKLEKDSKEIRFKIKIDNITVHGDKIDVRMLVTERRDGQPRQTHRVATFRIHNGRLEEADFQKDG”, with -0.073; and “DSEAAKRAETFIRNLVQGNEDELRDMADKDVNFQVGDKTVHGREQWQEEVSRTEKEARVEMRVDDYRDEPGTVKLNAKVTIEYNGQPFTVNLHVEIHFKNGKMQRAVFEIDPEVQKEVES”, with 0.692.
Then “DERAQDLVRQWLENVHTGDPSKLREQMDPNAHVVIGDRTFTGRENFAETVHHHLQDQRVQYDTMRIENEGEKARFRYKATVQHNGQPSKHQATAQLTLHNGRIQSLQMESTQ”, with -0.162; and “DEEVVHDLENQFRKNNWEEFARQADENAKVNIGEFEISGRSQIEEWAHRVKKQVDHIDVKHVSYDEDHLRMRVVVVVNGRKFDFEVIINVSNGEVKHMEVRFRDPSQETEWLNQIN”, with 1.61; and “DEDDQVRKILETQDRAMRTGDEDTYVNQADKDVRVKVGDKKLRGREEWKKEVTRIIERVDHFDVHIDHIDHQGDKIVIRQVIVLEHDGRRDSKTYNMTARNKNGRVKWKEVTEK”, with -0.205.
In turn, “DERDRHKQVEEMINAFDDGDEETIKELMDEDVRAQIGNKRVHGQENVSRILKEFRDRADHIQVDTYHVEGDRAQIHAKVEVNGRRIKVSIHVQLENGRFKSFVIEYTDSDKLREMQS” yielded a protease stability score of 0.909.
The figure for “DEEEAKKVLDKAVKAVKNGDLKHLKDLGKDGVEYRIADKKAHGPEQIEKVMEYLHRKGVRIEFKRQEVKGNTVTTDIEYQQGDETYTVQAHATVKGGRIDKVEIDVSERAKKVMDHG” is 0.149; for “DEHAMERIDDFFQALRNGDPKNLKEQIDPNVSLHYGDKEVTGKDRAAKEMAQIFRHIRLEFDIKSVSAHNGRVTVNAEVVDEENGRPHSRRVQNNAVWHNGVIQSFHVKETK” it is -0.402.
In turn, “DDTVQRMVDKFLENLKTGNEEDISKMADPNVSLNYGDKRIHGREQLMQWVERQEKEMRVEFQIRHVDVHGNKAHVTADMRIHNNGDPDNARVQFVVNAQGDKVKTITFHKTR” came in with a protease stability score of -0.14.
Then “DEDAARRMLEFLRQMEQGNEHELRHLADPNARMRVGDHTLHGMEDIAREQVERNRRLRFSNKVDRIKNDGDKVNLQIRFQIDVNGKPFTDVVSVNVHEHNGKIEFVEFRVPEEFREKVKR”, with 0.1; and “DERALDVVRKYQEALNSNDPEHLVELIDPNAKLQVGDKTIHGREQLHHEAQKRKDEMRLNVEVHDLRDRGSTVQIHARRSYSHNGRPRSERYVLHATIRGDKIDKMHFQTDS”, with -0.243; and “DEHDITKIMEEIAKVIRNNDEKRLVEMADPNVRVIVGDKEFQGRDEMEKFNHEYSRQADKVQVVSVNVNGNRITIEVTANINGRDLQFVVVFEIKNGTIENVHVNFTNPEVLRQAES”, with 1.19.
On to “DEQRYRELMETAFHLVISGDEDTLDQIGKPNMEYHYVDRTLHGKDVLRVLVKIVKRVGAEARVEEAEVNGDTARAKFQYRKGDNTVQTDAEVKYEGDQIKKARVRLNDEVRKVLKDG”, for which the protease stability score amounted to 0.174.
The figure for “DDRDLETMVRLWRDNDSKRLKQNVDPNARIRYGNFEVHGREQVQKWIKLFRDRVDHNDIKRYQTTPGRLVMQLSATFNGVKVKFTMIVEFHNGNIRLIQINFTDEENMKHLVREVE” is 1.55; for “DERNLHVANEFWKVLTDGDPRRLMELVDPNAKIQYGDKTITGREEIRKKAEKDTKKSRFEVQVQDIRVTGDTANIHAVFNEDHNGQPSQDFYVVTMAMNGDKIRFMIQRKSK” it is 0.483; for “EQDQIRRLKTFIKIIDHNNPSKVRELLDKDVHIDIGDKVIRGREEYADEIHKLQKEMRVKLQVDDIKDHGEHVHFTARWYARVNGRPRTNEIHVQARAHNGHVTSIKVHMDPRVLKEMRS” it is -0.027.
Then “DEEKLVQLMDKAFKFIVNGNTEEAQKMGADNVRYEYVDKKYEGPDVAKKMAQLMQKVGVERTVKRQELKGDQATADFDYRKGDKEYRTTAEVKYEGDKIKEARVEVTDEVKEVVHQG”, with -0.249.
Then “DEEKEKRTARQVADVLRSGNPDEMMKLADKDAEVRVGDHVLHGREEISKLMHELRRRIDHLEIKHVEVDNGSVNIVYVVRHNGKTEVVVLHVDFHNGKIREMTVRSG”, with 1.36; and “EEELADLLRRFLENVKDNDENQLKRNLDPNVRVLVGDKTLHGREDVARWLTKHQREQRVEYRIKEYEIHGNHFNATMQAQNTNNGKPRTFEAVIRVQFRNGRFQVIQIEDKQ”, with 1.39; and “DERQNKEAFQRVAENITTNNPDEIMKQADPNVRFKYGDKEVHGRENVRDIVKEFNERVDRVQIDHVNVQGDKVNANATADVNGRKHRFQIHAVIKNGRLKFMQIHDQ”, with 1.09.
Take “DEEDANNVAEQMMEIVERGDEERASELADPNAKFNIGDKKYEGRENLQKAIRHFRQRADHLEIKSLSVTPGHLKMRFVVKHNGQRNEVVIHVKAHNGKIVEIQVRNS”: the protease stability score is 0.15.
“DETAERLEHQLKSALETGDEESAKKQFDPNVKFQYGDKVIHGMENAIERIVKRLKELHVSVELKSMHVEGNNIQADLVATENHNGQPRTRRFTLHVTWRNGRIQEIRQQDTK” had a protease stability score of 1.31.
Take “DERKAEHWLDQLAQMLRTGDESHVARLMDENVNVVIGDQRFHGSDEARKAIRQLKERIDHLEVKDMKNEGNKMVVKAVADVNGRTHHLDVQMEFKNGRITRASFDPTAIKQAEG”: the protease stability score came to 1.14.
“DEDMSRKAKKFWKAETDGNPQKLKTLIDPNARAHVGDQDLHGRRKIVHWLKHFRDTMRQHWTRYSFDAHGNKVDNRFVVVLQTNGKPERRRNKLTLVFKNGRLVSMRDETKG” returned a protease stability score of 0.128.
The figure for “SEEELRKVVEKLLTYVIEGNPDDVKKYISPNVQVRYFDKTVQGRDEVMKFLRRAKKHGYRLQAKHVQLEGDRATTELDYQAGDQEATVRVEATVNGGRLEKLEVRDSPKVKKVLKDG” is 1.56; for “DERMDDTLRRLVERGDFHKIAENADPNVRMQVGNKVFHGREEVRRAAERWQNQVDHYQVDSVRVHNGHVSAHVQATVNGQRIRFTIKIDVQGDKVQRMEIEFTSEEQKKLQDEAVE” it is 1.41.
“DESDVEDLAKDAINAYQTGDPDQVARMADKDVKFTVGDHEVKGRNQLREHLQTIFHNVDHFDVTDMRINGNKARIHFTANVNGQTERNVMIIVAHNGKVRKMAIHSQ” had a protease stability score of -0.566.
Then “DEEEVQKILKTMNELLKHNDFDSLARQADPNAEFHVGDKRVHGREQVQTMLQDLRERIDHVEIRSMTAQGDKFKLDFLENVNGRRTRVTAHADVHNGRIKSVEYRTS”, with -0.619.
The figure for “EEQVEELMHRIMTAIKTNNPDDLKRNIDPNAKIRIGDTVIHGMEEYVHQFEEEVKQLRIEIIDVQQDIKGDKVVVKIRFRRQHNGRPDETVTVFTAKMDNGKVKSLDFQEDG” is 1.22; for “DEEVKTVAEEFWKAIQTGDPDQVKTQVDENARMRVGDKSIHGSDNISTDVERERKEIKVKYNIQDIRASNGTVRVRMDVRRNHNGKPREHEQTMTQTIDNGKIQDVNISTDG” it is -0.46; for “DEDAIRSVEKMLQDRRTGNPHEVQKMFDPNAQVDVGDKTVQGRENIKDHVETDLRQSRFHMEIKHVQAHNGQIDIDAERSYTRNGQPDSNRVEIVIDIKNGKIRSVKVRTDD” it is -0.488.
Then “DEKLIKLLKSLLKIQESGDPDKLRTMADPNVRFNIGDKVFHGMEEYATHVVELRKQAHIRIERLSNSDSNGVVNADFTRVNNHNGKPDSRRQEVTYVAHGDRIKEVNNQDHQ”, with -0.503.
